Laboratory results taken from paper doi:10.1101/772699 (bioRxiv, 2019).

B1: K-domain of SEP3 (SEP3^75-178) (domain or fragment, A. thaliana, UniProt O22456-1 75-178, looked up)
chain: YGAPEPNVPSREALAVELSSQQEYLKLKERYDALQRTQRNLLGEDLGPLSTKELESLERQLDSSLKQIRALRTQFMLDQLNDLQSKERMLTETNKTLRLRLADG

Columns and labels:
[1] = biological target: SAP54 (purified, secreted part) (Aster Yellows-Witches' Broom phytoplasma (Candidatus Phytoplasma asteris strain AY-WB)); test: dynamic light scattering
dynamic light scattering = biological target: the molecule itself; test: dynamic light scattering

Row | Molecule | stoichiometry N [1] | stoichiometry N (dynamic light scattering)
1 | SAP54 (purified, secreted part) (natural protein) | 2 | –
2 | B1 | – | 4
